Experimental data: US20240018260A1 (AMUNIX PHARMACEUTICALS, published 2024)

Key:
[1] = target: human CD3 on purified human CD3 positive T cells (human, UniProt P07766 23-207); test: cell-based or functional assay
[2] = target: T1, human EpCAM on EpCAM positive human carcinoma cells (SW480, SK-OV-3) (human, UniProt P16422 24-314); test: cell-based or functional assay
T1 sequence (looked up): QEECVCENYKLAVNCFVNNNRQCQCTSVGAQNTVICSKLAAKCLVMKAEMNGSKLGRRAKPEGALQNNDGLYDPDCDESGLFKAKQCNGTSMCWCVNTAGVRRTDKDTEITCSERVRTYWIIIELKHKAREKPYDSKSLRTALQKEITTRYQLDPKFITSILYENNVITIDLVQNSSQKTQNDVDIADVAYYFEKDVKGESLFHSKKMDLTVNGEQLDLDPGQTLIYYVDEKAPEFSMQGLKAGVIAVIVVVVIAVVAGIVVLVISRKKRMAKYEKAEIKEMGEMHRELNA

[3] = target: T2, recombinant human EpCAM (rhEpCAM) (human, UniProt P16422 24-265); test: sandwich ELISA: rhEpCAM coated on plate, detection with biotin-conjugated protein L
T2 construct: Bought recombinant protein coated on the ELISA plate
T2 sequence (looked up): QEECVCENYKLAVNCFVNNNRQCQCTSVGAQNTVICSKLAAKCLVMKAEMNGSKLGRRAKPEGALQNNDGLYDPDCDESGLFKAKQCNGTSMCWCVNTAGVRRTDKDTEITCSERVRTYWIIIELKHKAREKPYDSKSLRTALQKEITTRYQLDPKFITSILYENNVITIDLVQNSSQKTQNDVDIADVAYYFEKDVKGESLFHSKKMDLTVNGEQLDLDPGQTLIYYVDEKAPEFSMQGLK
Description: (§1) The binding specificity of an anti-EpCAM×anti-CD3 ProTIA (e.g. AC1476) was evaluated in conjunction with the control ProTIA compositions anti-CEA×anti-CD3 ProTIA (e.g. AC1432) and anti-HER2×anti-CD3 ProTIA (e.g. AC1408), in a target antigen/biotin-conjugated protein-L sandwich ELISA. Both the anti-CEA×anti-CD3 ProTIA (AC1432) and the anti-HER2×anti-CD3 ProTIA (AC1408) bear the same anti-CD3 scFv component as the anti-EpCAM×anti-CD3 ProTIA (AC1476) albeit with different targeting component. In the ELISA binding assay, recombinant human EpCAM (rhEpCAM) (R&D Systems cat #960-EP-50), recombinant human CEA (Abcam cat #ab742) and recombinant human HER2 (AcroBiosystems cat #HE2-H525) were coated on a 96-well, flat-bottomed plate at a concentration of 0.1 microg/100 microL. After overnight incubation at 4° C., the assay plate was washed and blocked with 3% bovine serum albumin (BSA) for 1 h at room temperature. The plate was washed again followed by the introduction of a dose range (0.0007 to 0.5 nM, achieved with a 1:3 fold serial dilution scheme from a starting concentration of 0.5 nM) of protease-treated anti-EpCAM×anti-CD3 ProTIA (e.g. AC1476) to EpCAM-coated wells, CEA-coated wells and HER2-coated wells. […] After desired color intensity was reached, 0.2 N sulfuric acid was added to stop the reaction and absorbance (OD) was measured at 450 nm using a spectrophotometer. […]

[4] = target: T3, recombinant human CD3 (rhCD3εδ) (human, UniProt P07766 23-126; P04234 22-105); test: sandwich ELISA: rhCD3εδ coated on plate, detection with peroxidase-conjugated protein L
T3 chain: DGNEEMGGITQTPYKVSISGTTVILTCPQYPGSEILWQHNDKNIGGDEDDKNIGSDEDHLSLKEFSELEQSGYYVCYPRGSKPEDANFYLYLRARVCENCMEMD

[5] = target: T2, recombinant human EpCAM (rhEpCAM); test: sandwich ELISA: rhEpCAM coated on plate, detection with peroxidase-conjugated protein L
Description: The binding capability of anti-EpCAM×anti-CD3 ProTIA composition was verified with an EpCAM/peroxidase-conjugated protein-L sandwich ELISA. In the ELISA binding assay, recombinant human EpCAM (rhEpCAM) (Sino BiologicalR&D Systems cat #10694-H08H960-EP-50) was coated on a 96-well, flat-bottomed plate at a concentration of 0.1 microg/100 microL. After overnight incubation at 4° C., the assay plate was washed and blocked with 3% bovine serum albumin (BSA) for 1 h at room temperature. The plate was washed again followed by the introduction of a dose range of non-cleavable anti-EpCAM×anti-CD3 ProTIA (i.e., a ProTIA without the release segment cleavage sequence and AC1484, a ProTIA chimeric polypeptide assembly composition) and protease-treated and protease-untreated anti-EpCAM×anti-CD3 ProTIA (e.g. AC1476). The dose range utilized for non-cleavable and protease-treated and untreated ProTIA was 0.0006 to 5 nM, achieved with a 1:6 fold serial dilution scheme from a starting concentration of 5 nM. The plate was allowed to incubate with shaking for 1 h at room temperature to allow the non-cleavable, protease-cleaved and uncleaved ProTIA to bind to the rhEpCAM coated on the plate. Unbound components were removed with a wash step and a peroxidase-conjugated protein L (PierceThermoFisher Scientific cat #32420) was added. After an appropriate incubation period that allowed protein-L to bind to the kappa light of the scFvs, any unbound reagent was removed by a wash step followed by the addition of tetramethylbenzidine (TMB) substrate to each well. TMB is a chromogenic substrate of peroxidase. After desired color intensity was reached, 0.2 N sulfuric acid was added to stop the reaction and absorbance (OD) was measured at 450 nm using a spectrophotometer. The intensity of the color is proportional to the concentration of non-cleavable, protease-treated and untreated anti-EpCAM×anti-CD3 ProTIA captured by the rhEpCAM/protein-L sandwich ELISA. The intensity of the color produced (measured OD) was plotted against protein concentration; and the concentration of non-cleavable, protease-cleaved and uncleaved anti-EpCAM×anti-CD3 ProTIA that gave half-maximal response (EC₅₀) was derived with a 4-parameter logistic regression equation using GraphPad prism software.

[6] = target: T4, recombinant human HER2 (human, UniProt P04626 23-652); test: sandwich ELISA: antigen coated on plate, detection with biotin-conjugated protein L
T4 construct: Coated on the ELISA plate; also called HER2 antigen
Description: as §1

[7] = target: T5, recombinant human CEA (human, UniProt P06731 35-685, limits assumed); test: as above
T5 construct: Coated on the ELISA plate; also called CEA antigen
T5 sequence (looked up): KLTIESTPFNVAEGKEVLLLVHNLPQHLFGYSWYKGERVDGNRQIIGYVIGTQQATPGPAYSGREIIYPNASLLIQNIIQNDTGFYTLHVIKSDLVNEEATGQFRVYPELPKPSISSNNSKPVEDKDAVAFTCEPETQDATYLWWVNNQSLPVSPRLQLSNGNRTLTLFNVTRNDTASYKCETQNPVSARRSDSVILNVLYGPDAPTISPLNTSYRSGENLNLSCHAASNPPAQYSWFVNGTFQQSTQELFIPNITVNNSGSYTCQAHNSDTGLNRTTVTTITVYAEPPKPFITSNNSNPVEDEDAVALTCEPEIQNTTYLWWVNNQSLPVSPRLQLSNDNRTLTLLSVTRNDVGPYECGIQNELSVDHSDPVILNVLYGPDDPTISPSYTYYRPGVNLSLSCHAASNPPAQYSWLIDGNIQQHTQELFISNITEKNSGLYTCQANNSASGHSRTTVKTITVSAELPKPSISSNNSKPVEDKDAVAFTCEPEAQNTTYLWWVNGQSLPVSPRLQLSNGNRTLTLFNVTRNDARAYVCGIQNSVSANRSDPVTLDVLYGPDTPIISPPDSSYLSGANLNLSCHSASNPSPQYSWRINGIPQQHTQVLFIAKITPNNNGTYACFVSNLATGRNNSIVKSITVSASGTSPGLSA
Description: as §1

EC50 [3]: 0.11 nM
EC50 [4]: 0.31 nM
EC50 [5]: 0.12 nM
B1: Protease-treated (MMP-9 cleaved) AC1476 anti-EpCAM×anti-CD3 ProTIA, released aEpCAM-aCD3 first portion (bispecific antibody)
chain: DIQMTQSPSSLSASVGDRVTITCRSTKSLLHSNGITYLYWYQQKPGKAPKLLIYQMSNLASGVPSRFSSSGSGTDFTLTISSLQPEDFATYYCAQNLEIPRTFGQGTKVEIKGATPPETGAETESPGETTGGSAESEPPGEGQVQLVQSGPGLVQPGGSVRISCAASGYTFTNYGMNWVKQAPGKGLEWMGWINTYTGESTYADSFKGRFTFSLDTSASAAYLQINSLRAEDTAVYYCARFAIKGDYWGQGTLLTVSSGGGGSDIQMTQSPSSLSASVGDRVTITCRASQDIRNYLNWYQQKPGKAPKLLIYYTSRLESGVPSRFSGSGSGTDYTLTISSLQPEDFATYYCQQGNTLPWTFGQGTKVEIKGATPPETGAETESPGETTGGSAESEPPGEGEVQLVESGGGLVQPGGSLRLSCAASGYSFTGYTMNWVRQAPGKGLEWVALINPYKGVSTYNQKFKDRFTISVDKSKNTAYLQMNSLRAEDTAVYYCARSGYYGDSDWYFDVWGQGTLVTVSSGTAEAASASGLSGRSDNHSPLG
notes: ESI-MS found 58,071 Da against a theoretical 58,067 Da; also called ProTIA-A; protease-treated anti-EpCAM×anti-CD3 ProTIA
EC50, LDH release cytotoxicity, purified human CD3 positive T cells:OVCAR-3 5:1 [1]: 0.0003 nM
EC50, LDH release cytotoxicity, purified human CD3 positive T cells:SK-OV-3 5:1 [1]: 0.0024 nM
EC50, LDH release cytotoxicity, PBMC:SK-OV-3 5:1 [2]: 0.003 nM
binding result [6]: no binding (tested: 0.0007 to 0.5 nM (dose range tested))
binding result [7]: no binding (tested: 0.0007 to 0.5 nM (dose range tested))
